Experimental findings from patent US20240059769A1 (BIOLOJIC DESIGN, published 2024) are described below.

Assay [1] has as its target T1, recombinant human IL-13 (human, UniProt P35225 35-146). The assay is described as follows: cell-based or functional assay.
The target in assay [2] is T2, recombinant cynomolgus monkey IL-13 (cynomolgus monkey, UniProt Q0PW92 21-132).
T2 construct: bought; also called rc-IL-13; cIL-13
The assay is described as follows: SPR.

Assay [3] has as its target T3, cynomolgus monkey (cyno) TSLP (cynomolgus monkey, UniProt A0A7N9CAT7 29-159).
T3 construct: also called cTSLP; cynomolgus TSLP
As to the kind of experiment: SPR.

In assay [4] the target is T4, hTSLP-His (human, UniProt Q969D9 29-159, limits assumed).
T4 construct: bought; also called hTSLP (ACROBiosystems TSP-H52Hb); not shown: His tag
As to the kind of experiment: competition ELISA, 7 nM TSLP-His pre-incubated with antibody; competitor Tezepelumab coated.

The target in assay [5] is T5, human TSLP (human, UniProt Q969D9 29-159).
T5 construct: also called hTSLP; rhTSLP
The assay is described as follows: SPR.

The target of assay [6] is T4, hTSLP-His. As to the kind of experiment: competition ELISA: antibody titrated and pre-incubated with 7 nM TSLP-His, then on a plate coated with 33.001 (Tezepelumab), anti-His detection; row head on the sheet reads EC50, unit from the axis.
The target of assay [7] is T1, recombinant human IL-13. As to the kind of experiment: SPR.
The target in assay [8] is T4, hTSLP-His. The assay is described as follows: cell-based or functional assay.
The target in assay [9] is T1, recombinant human IL-13. The assay is described as follows: cell-based or functional assay. The source holds these as a separate data set.
In assay [10] the target is T5, human TSLP. The assay is described as follows: cell-based or functional assay.
Assay [11] concerns the target T4, hTSLP-His. As to the kind of experiment: competition ELISA: antibody titrated and pre-incubated with 7 nM TSLP-His, then on a plate coated with 33.001 (Tezepelumab), anti-His detection; row head on the sheet reads EC50, unit from the axis. The source holds these as a separate data set.
Assay [12] concerns the target T4, hTSLP-His. Described as above. This is another data set of the same source.
The target of assay [13] is hIL-13-His (human, UniProt P35225 35-146, limits assumed). The assay is described as follows: cell-based or functional assay.
hIL-13-His, sequence (P35225 35-146 limits assumed): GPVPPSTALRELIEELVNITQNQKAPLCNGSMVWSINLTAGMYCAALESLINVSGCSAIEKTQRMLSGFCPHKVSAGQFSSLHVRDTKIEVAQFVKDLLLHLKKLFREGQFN
Assay [14] has as its target T6, recombinant human IL-13 (rh-IL-13)-Fc (human, UniProt P35225 35-146, limits assumed).
T6 construct: bought; not shown: human Fc
As to the kind of experiment: yeast surface display scFv, flow cytometry, 10 nM rh-IL-13-Fc.

Assay [15] deals with T7, recombinant human TSLP (hTSLP)-Fc (human, UniProt Q969D9 29-159, limits assumed).
T7 construct: not shown: Fc
As to the kind of experiment: yeast surface display, flow cytometry, 10 nM hTSLP-Fc; MFI normalized to expression and to the positive control.

T2 sequence (Q0PW92 entry or part of it): as the sequence (P35225 35-146 limits assumed) above, with G1S, R10K, M42V, S67N, H83R, L100V counted along it
T1 sequence (P35225 35-146 limits assumed): as the sequence (P35225 35-146 limits assumed) above
T6 sequence (P35225 35-146 limits assumed): as above
T3 sequence (A0A7N9CAT7 entry or part of it): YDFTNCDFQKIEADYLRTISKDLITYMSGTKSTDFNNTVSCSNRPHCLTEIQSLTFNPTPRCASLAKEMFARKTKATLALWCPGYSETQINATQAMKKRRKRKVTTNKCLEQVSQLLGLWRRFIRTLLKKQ

B1: BDG38.075 (antibody, V domains shown)
VH: QMQLVESGGGVVQPGRSLRLSCAASGFAFRTYGMHWVRQAPGKGLEWVAVIWYDGSATHYADSVKGRFTITRDNSKNTLNLQMNSLRAEDTAVYYCVRAPQWYLSAEAFDLWGQGTMVTVSS
VL: SYVLTQPPSVSVAPGETATITCGGNLIGAYLVHWYQQKPGQAPVLVIYDDVDRPARIPERFSGSNSGNTATLTISRVEAGDEADYYCQVWDHDTNTMVFGGGTKLTVL
notes: IgG1
Take B1: the “HEK-IL-13 [nM] (IC50, STAT6 reporter)” value in [1] was determined as 0.0691 nM. The Kd in [2] was 0.454 nM; in assay [3], 0.00279 nM; in assay [5], 0.012 nM; in [7], 0.0318 nM. Moreover, the koff is 0.0156 s⁻¹ in assay [2], 7.59e-06 s⁻¹ in [3], 2.38e-05 s⁻¹ in assay [5] and 0.000547 s⁻¹ in [7]. The kon in [2] came to 3.45e+07 M⁻¹ s⁻¹; in [3] it was 2.72e+06 M⁻¹ s⁻¹; in [5] it was 1.98e+06 M⁻¹ s⁻¹; in [7], 1.72e+07 M⁻¹ s⁻¹. For the same molecule, the IC50 in assay [4] is 3.94 nM; in assay [6], 3.39 nM. Further, the “IC50 [pM], STAT5 phosphorylation inhibition in MUTZ5 cells” value in [8] is 43.9 pM. Further, the “IC50 CD23” value in [9] turned out to be 0.0975 nM. Further, the “IC50 TARC” value in assay [10] worked out at 4.17 nM.

B2: BDG38.080 (antibody, V domains shown)
VH: QMQLVESGGGVVQPGRSLRLSCAASGFAFRTYGMHWVRQAPGKGLEWVAVIWYDGSATHYADSVKGRFTITRDNSKNTLNLQMNSLRAEDTAVYYCVRAPQWYLSAEAFDLWGQGTMVTVSS
VL: SYVLTQPPSVSVAPGETATITCGGNLIGAYLVHWYQQKPGQAPVLVIYDDSDRPDRIPERFSGSNSGNTATLTISRVEAGDEADYYCQVWDHNTNHMVFGGGTKLTVL
notes: IgG1
For the molecule B2, the “HEK-IL-13 [nM] (IC50, STAT6 reporter)” value in assay [1] amounted to 0.0592 nM. The IC50 in [4] and in assay [11] was 3.27 nM throughout. The Kd was 0.00722 nM in [5] and 0.0716 nM in assay [7]. Further, the koff in [5] is 1.81e-05 s⁻¹; in assay [7], 0.00114 s⁻¹. The on-rate (kon) in [5] was determined as 2.5e+06 M⁻¹ s⁻¹; in assay [7] it was 1.59e+07 M⁻¹ s⁻¹. Moreover, the “IC50 [pM], STAT5 phosphorylation inhibition in MUTZ5 cells” value in [8] came out at 34.3 pM. Also, the “IC50 CD23” value in assay [9] was 0.201 nM. Also, the “IC50 TARC” value in assay [10] came to 0.79 nM.

B3: BDG38.082 (antibody, V domains shown)
VH: QMQLVESGGGVVQPGRSLRLSCAASGFAFRTYGMHWVRQAPGKGLEWVAVIWDDGSNTHYADSVKGRFTITRDNSKNTLNLQMNSLRAEDTAVYYCVRAPQWYLTAEAFDLWGQGTMVTVSS
VL: SYVLTQPPSVSVAPGETATITCGGNMIGGYLVHWYQQKPGQAPVLVIYDDVDRPDRIPERFSGSNSGNTATLTISRVEAGDEADYYCQVWDHDTNQVVFGGGTKLTVL
notes: IgG1
As for B3, the “HEK-IL-13 [nM] (IC50, STAT6 reporter)” value in assay [1] was found to be 0.043 nM. Also, the IC50 turned out to be 2.73 nM in assay [12] and 2.7 nM in assay [4]. Moreover, the Kd in assay [5] was 0.0616 nM; in assay [7] it was 0.114 nM. Besides, the koff in assay [5] amounted to 0.000158 s⁻¹; in assay [7], 0.000956 s⁻¹. Further, the kon in [5] worked out at 2.56e+06 M⁻¹ s⁻¹; in assay [7], 8.41e+06 M⁻¹ s⁻¹. In addition, the “IC50 CD23” value in assay [9] was 0.0391 nM. Moreover, the “IC50 TARC” value in assay [10] came to 1.58 nM.

B4: BDG38.078 (antibody, V domains shown)
VH: QMQLVESGGGVVQPGRSLRLSCAASGFEFRTYGMHWVRQAPGKGLEWLGVIWYDGSNTHYADSVKGRFTITRDNSKNTLNLQMNSLRVEDTAVYYCVRAPQWYLTAEAFDLWGQGTMVTVSS
VL: SYILTQPPSVSVAPGETATITCGGNLIGARLVHWYQQKPGQAPVLVIYDDSDRPSRIPERFSGSNIGNTATLTIERVEAGDEADYYCQVWDYYSDHMVFGGGTKLTVL
notes: IgG1
As for B4, the “HEK-IL-13 [nM] (IC50, STAT6 reporter)” value in assay [1] is 0.0508 nM. Further, in [4], the IC50 was determined as 4.3 nM. Also, in [5], binding was put at a Kd of 0.000231 nM, the koff was found to be 2.95e-07 s⁻¹ and the kon was 1.28e+06 M⁻¹ s⁻¹. In assay [7], the Kd was determined as 0.0857 nM, the koff was found to be 0.000203 s⁻¹ and the kon was determined as 2.37e+06 M⁻¹ s⁻¹. In [11], this molecule gave an IC50 of 4.3 nM. The “IC50 [pM], STAT5 phosphorylation inhibition in MUTZ5 cells” value in assay [8] amounted to 338 pM. Besides, the “IC50 CD23” value in [9] came to 0.125 nM. The “IC50 TARC” value in assay [10] was 6.52 nM.

B5: BDG38.077 (antibody, V domains shown)
VH: QMQLVESGGGVVQPGRSLTLSCAASGFAFRTYGMHWVRQAPGKGLEWVGVIWYDGSATHYADSVKGRFTITRDNSKNTLNLQMNSLRAEDTAVYYCVRAPQWYLTAEAFDLWGQGTMVTVSS
VL: SYVLTQPPSVSVAPGETATITCGGALIGSRLVHWYQQKPGQAPVLVIYDDSDRPSRIPERFSGSNIGNTATLTISDVEAGDEADYYCQVWDHSSNTYVFGGGTKLTVL
notes: IgG1
Take B5: the “HEK-IL-13 [nM] (IC50, STAT6 reporter)” value in assay [1] is 0.0505 nM. Also, the figures for the IC50 in [4] and in assay [6] were 8.47 nM and 8.48 nM, respectively. The Kd in [5] came to 0.166 nM; in assay [7], 0.0325 nM. Also, the koff in assay [5] is 0.000144 s⁻¹; in assay [7], 0.000539 s⁻¹. Also, the on-rate (kon) amounted to 869000 M⁻¹ s⁻¹ in [5] and 1.66e+07 M⁻¹ s⁻¹ in assay [7]. Also, in assay [8], the “IC50 [pM], STAT5 phosphorylation inhibition in MUTZ5 cells” value was found to be 304 pM. Further, the “IC50 CD23” value in assay [9] came to 0.0124 nM. Moreover, the “IC50 TARC” value in assay [10] worked out at 2.47 nM.

B6: Tralokinumab (antibody, V domains shown)
VH: QVQLVQSGAEVKKPGASVKVSCKASGYTFTNYGLSWVRQAPGQGLEWMGWISANNGDTNYGQEFQGRVTMTTDTSTSTAYMELRSLRSDDTAVYYCARDSSSSWARWFFDLWGRGTLVTVSS
VL: SYVLTQPPSVSVAPGKTARITCGGNIIGSKLVHWYQQKPGQAPVLVIYDDGDRPSGIPERFSGSNSGNTATLTISRVEAGDEADYYCQVWDTGSDPVVFGGGTKLTVL
B6: in [13], the “IC50, CD23 expression on monocytes (hPBMC, 0.7 nM IL-13)” value came to 0.91 nM.

B7: Clone C9 (yeast-displayed scFv) (scFv)
scFv: QMQLVESGGGVVQPGRSLRLSCAASGFTFRTYGMHWVRQAPGKGLEWVAVIWYDGSNKHYADSVKGRFTITRDNSKNTLNLQMNSLRAEDTAVYYCARSPQWEWVHEAFDLWGQGTMVTVSSGGGGSGGGGSGGGGSSYVLTQPPSVSVAPGQTARITCGGNLIGSKLVHWYQQKPGQAPVLVVYDDGDRPSWIPERFSGSNSGNTATLTISRVEAGDEADYYCQVWDSSSDGVVFGGGTKLTVL
Take B7: in assay [14], the “relative affinity (normalized MFI, % of positive control)” value is above 20%. The binding result in assay [15] is “binds”.

B8: Clone C6 (yeast-displayed scFv) (scFv)
scFv: QMQLVESGGGVVQPGRSLRLSCAASGFTFRTYGMHWVRQAPGKGLEWVAVIWYDGSNKHYADSVKGRFTITRDNSKNTLNLQMNSLRAEDTAVYYCARAPQWMLVAEAFDLWGQGTMVTVSSGGGGSGGGGSGGGGSSYVLTQPPSVSVAPGQTARITCGGNLIGSKLVHWYQQKPGQAPVLVVYDDSDRPSRIPERFSGSNSGNTATLTISRVEAGDEADYYCQVWDSSSDHVVFGGGTKLTVL
For B8, in assay [14], the “relative affinity (normalized MFI, % of positive control)” value was above 20%. Further, the binding result in assay [15] is “binds”.

B9: Clone C2 (yeast-displayed scFv) (scFv)
scFv: QMQLVESGGGVVQPGRSLRLSCAASGFTFRTYGMHWVRQAPGKGLEWVAVIWYDGSNKHYADSVKGRFTITRDNSKNTLNLQMNSLRAEDTAVYYCARAPQWELTAEAFDIWGQGTMVTVSSGGGGSGGGGSGGGGSSYVLTQPPSVSVAPGQTARITCGGNLIGSKLVHWYQQKPGQAPVLVVYDDSDRPSLIPERFSGSNSGNTATLTISRVEAGDEADYYCQVWDSSSDGVVFGGGTKLTVL
For the molecule B9, the “relative affinity (normalized MFI, % of positive control)” value in assay [14] was above 20%. In [15], the binding result is “binds”.

B10: Clone C40 (yeast-displayed scFv) (scFv)
scFv: QMQLVESGGGVVQPGRSLRLSCAASGFTFRTYGMHWVRQAPGKGLEWVAVIWYDGSNKHYADSVKGRFTITRDNSKNTLNLQMNSLRAEDTAVYYCARSPQWEWVHEAFDLWGQGTMVTVSSGGGGSGGGGSGGGGSSYVLTQPPSVSVAPGQTARITCGGNNIGSKLVHWYQQKPGQAPVLVVYDDSDRPSRIPERFSGSNSGNTATLTISRVEAGDEADYYCQVWDTSSDGVVFGGGTKLTVL
With B10, in [14], the “relative affinity (normalized MFI, % of positive control)” value is above 20%. Also, the binding result in assay [15] is given as “binds”.

B11: Lebrikizumab (antibody, V domains shown)
VH: QVTLRESGPALVKPTQTLTLTCTVSGFSLSAYSVNWIRQPPGKALEWLAMIWGDGKIVYNSALKSRLTISKDTSKNQVVLTMTNMDPVDTATYYCAGDGYYPYAMDNWGQGSLVTVSS
VL: DIVMTQSPDSLSVSLGERATINCRASKSVDSYGNSFMHWYQQKPGQPPKLLIYLASNLESGVPDRFSGSGSGTDFTLTISSLQAEDVAVYYCQQNNEDPRTFGGGTKVEIKR
As for B11, the “IC50, CD23 expression on monocytes (hPBMC, 0.7 nM IL-13)” value in [13] was determined as 0.38 nM.
